Measurements reported in patent US20130274124A1.

Legend:
Experiment in all cases: cell-based or functional assay
[1] = molecular target: collagen I/laminin (hit ECM combination) (human) (UniProt P02452)
[2] = molecular target: collagen IV/galectin-8 (hit ECM combination) (human) (UniProt P02462)
[3] = molecular target: collagen II/galectin-4 (hit ECM combination) (human) (UniProt P02458)
Chain of collagen II/galectin-4 (hit ECM combination) (human) (P02458 other isoform, or with tags, fused parts or gaps limits assumed, chain 1 of 2): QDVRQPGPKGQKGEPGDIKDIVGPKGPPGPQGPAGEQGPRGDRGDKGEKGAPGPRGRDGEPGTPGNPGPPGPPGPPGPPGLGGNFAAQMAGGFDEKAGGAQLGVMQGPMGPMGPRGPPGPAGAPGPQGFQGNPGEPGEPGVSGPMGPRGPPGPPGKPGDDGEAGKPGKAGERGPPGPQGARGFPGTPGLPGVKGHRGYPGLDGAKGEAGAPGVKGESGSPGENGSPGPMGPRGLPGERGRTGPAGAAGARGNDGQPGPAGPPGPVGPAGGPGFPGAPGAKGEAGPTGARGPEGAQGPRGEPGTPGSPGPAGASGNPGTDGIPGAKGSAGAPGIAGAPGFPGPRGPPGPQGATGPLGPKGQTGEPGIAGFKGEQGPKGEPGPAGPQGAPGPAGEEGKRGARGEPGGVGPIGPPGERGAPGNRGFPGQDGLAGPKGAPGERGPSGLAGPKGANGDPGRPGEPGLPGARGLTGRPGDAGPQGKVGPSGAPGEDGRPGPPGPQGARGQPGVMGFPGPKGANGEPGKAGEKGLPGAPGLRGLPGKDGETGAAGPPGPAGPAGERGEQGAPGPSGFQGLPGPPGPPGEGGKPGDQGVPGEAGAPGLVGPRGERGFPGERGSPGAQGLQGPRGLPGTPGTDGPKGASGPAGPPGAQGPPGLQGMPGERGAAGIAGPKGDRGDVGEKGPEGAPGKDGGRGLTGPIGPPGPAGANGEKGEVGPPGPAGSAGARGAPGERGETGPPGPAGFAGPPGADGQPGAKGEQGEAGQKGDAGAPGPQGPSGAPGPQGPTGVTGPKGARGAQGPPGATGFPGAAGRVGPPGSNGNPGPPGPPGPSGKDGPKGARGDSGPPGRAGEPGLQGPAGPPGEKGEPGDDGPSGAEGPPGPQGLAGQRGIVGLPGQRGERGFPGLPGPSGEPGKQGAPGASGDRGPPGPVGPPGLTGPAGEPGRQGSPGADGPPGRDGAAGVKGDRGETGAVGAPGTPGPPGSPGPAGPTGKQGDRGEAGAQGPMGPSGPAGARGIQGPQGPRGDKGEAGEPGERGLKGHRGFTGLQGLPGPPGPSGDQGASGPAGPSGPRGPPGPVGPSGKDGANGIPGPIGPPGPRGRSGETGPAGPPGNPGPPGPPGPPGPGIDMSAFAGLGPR
Chain of collagen II/galectin-4 (hit ECM combination) (human) (chain, as listed by the source limits assumed, chain 2 of 2): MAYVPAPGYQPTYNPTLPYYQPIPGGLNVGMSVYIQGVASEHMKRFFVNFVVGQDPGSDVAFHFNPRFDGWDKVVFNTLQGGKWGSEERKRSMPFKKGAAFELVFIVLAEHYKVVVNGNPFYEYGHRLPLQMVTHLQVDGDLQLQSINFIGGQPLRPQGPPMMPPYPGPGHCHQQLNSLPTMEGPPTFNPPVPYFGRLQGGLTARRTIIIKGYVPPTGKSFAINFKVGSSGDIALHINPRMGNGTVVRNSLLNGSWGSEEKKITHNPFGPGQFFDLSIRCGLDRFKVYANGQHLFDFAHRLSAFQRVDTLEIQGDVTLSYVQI

Chain of collagen IV/galectin-8 (hit ECM combination) (human) (P02462 173-1669 P555T limits assumed, chain 1 of 2): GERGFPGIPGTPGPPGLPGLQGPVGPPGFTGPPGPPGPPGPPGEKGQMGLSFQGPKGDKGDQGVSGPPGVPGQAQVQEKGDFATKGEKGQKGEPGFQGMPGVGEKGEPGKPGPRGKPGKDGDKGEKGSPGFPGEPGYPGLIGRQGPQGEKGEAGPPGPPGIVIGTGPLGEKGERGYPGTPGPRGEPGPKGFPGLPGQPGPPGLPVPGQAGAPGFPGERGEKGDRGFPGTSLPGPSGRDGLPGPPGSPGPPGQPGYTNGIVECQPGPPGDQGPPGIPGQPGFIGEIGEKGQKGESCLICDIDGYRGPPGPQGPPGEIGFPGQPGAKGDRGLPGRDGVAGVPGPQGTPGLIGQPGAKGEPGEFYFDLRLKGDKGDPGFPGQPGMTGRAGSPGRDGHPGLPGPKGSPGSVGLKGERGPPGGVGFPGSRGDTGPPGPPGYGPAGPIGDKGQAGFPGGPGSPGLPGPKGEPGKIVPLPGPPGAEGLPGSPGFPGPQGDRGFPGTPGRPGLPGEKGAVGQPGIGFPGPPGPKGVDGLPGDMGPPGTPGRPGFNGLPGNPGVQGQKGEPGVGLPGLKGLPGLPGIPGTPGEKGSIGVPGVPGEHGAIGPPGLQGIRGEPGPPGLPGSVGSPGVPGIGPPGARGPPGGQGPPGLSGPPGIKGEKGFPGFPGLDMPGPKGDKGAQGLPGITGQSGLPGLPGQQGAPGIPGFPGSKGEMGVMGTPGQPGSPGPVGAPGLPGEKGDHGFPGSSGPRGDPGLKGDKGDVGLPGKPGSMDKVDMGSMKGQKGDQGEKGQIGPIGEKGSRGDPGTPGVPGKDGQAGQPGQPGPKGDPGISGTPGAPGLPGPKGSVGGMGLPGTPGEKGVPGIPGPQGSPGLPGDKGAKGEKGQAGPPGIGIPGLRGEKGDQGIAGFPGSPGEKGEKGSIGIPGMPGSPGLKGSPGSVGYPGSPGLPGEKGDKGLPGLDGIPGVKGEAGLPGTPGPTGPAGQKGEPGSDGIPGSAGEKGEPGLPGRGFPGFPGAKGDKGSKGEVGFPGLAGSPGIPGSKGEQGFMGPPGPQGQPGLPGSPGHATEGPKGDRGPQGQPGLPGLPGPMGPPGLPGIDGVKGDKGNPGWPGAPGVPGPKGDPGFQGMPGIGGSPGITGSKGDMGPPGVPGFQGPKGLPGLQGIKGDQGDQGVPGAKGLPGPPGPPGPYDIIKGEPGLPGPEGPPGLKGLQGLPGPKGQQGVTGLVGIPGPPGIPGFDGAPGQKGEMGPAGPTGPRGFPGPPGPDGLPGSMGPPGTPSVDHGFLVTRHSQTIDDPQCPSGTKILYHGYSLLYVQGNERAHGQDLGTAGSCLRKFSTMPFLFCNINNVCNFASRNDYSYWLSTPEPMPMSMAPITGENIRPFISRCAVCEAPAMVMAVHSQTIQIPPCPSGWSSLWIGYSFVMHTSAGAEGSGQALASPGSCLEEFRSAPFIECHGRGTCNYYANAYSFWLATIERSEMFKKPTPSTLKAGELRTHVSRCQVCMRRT
Chain of collagen IV/galectin-8 (hit ECM combination) (human) (chain, as listed by the source limits assumed, chain 2 of 2): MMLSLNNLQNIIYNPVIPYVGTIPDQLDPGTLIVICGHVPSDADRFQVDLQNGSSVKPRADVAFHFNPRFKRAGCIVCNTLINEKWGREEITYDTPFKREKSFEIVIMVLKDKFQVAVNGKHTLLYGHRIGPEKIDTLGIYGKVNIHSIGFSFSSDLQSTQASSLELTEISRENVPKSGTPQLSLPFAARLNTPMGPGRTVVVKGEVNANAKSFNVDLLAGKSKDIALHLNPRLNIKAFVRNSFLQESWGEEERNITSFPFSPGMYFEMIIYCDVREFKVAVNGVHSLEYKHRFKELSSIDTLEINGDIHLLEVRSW

reduction of cellular attachment after blocking the integrin with an antibody [1]: 50%
reduction of cellular attachment after blocking the integrin with an antibody [2]: 50%
reduction of cellular attachment after blocking the integrin with an antibody [3]: 50%
Substance: α1 integrin (from UniProt P56199 29-1179) (receptor)
